According to the NTF2 design screens of Basanta et al. (2020):

Assay: protease stability score; higher = more stable; yeast display proteolysis, trypsin and chymotrypsin;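 note: log10 excess protease needed over predicted unfolded state with 0 meaning unfolded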

Sequence | protease stability score
EERVQKMLEDAMRTNDEVELIKSAPPNAKVVVGDKKIKGHEEAHRWAVRFKEQVDHTEIKHLDINGDKVSLDFSIVINGKKIRVVVKVTATNGKVREVHVQATSEDDQEQLKRDIK | 0.652
EESAIERLKEAMKAFDHGDEDEWRQQFDKNARVQIGDKSVRGRDNMAKQIKKEKEKMRVEVKLESVHVHNGHVTADADYKEQKNGRPTSSRFQLHATFKGDKFKNMVWHKDS | -0.422
EESLEHIVRTMLEQIRRGDPRDLKEMFPENARIEYGDRSIHGREEYAKTMEHKRRQARYHFQVKSIRNNGNKVELVMEVEDNHNGNPSTRRVKLTIVFHNGRIQNVEQTNKP | 1.03
EESLIRLATLFMRAMETGDPKQANDLVDPNARFKIGDSVINGRERFNEWLKDLKEEMSVHYRVEHMHAEGDRVEVDFVVVYNVDGRPQRMRVKLEADLSNGRMRNVTLRFPSEEEKKIKK | 0.525
EESVIKRIHQLMESNDWDQLVRQMDEDAKVEIGNFRVEGREEAEDWARKVKKQVDHLEVEDIQIRGNKVEVTMNVQVNGKTVRFDLVMEVRNGRVTSMSARFRSEDDVKIMEEMLK | 1.15
EHELERQASKFAQLLRTNDFEKLLEMFDENARIEVGDKFVQGRDRIKKKLERDKTEMNRRYEDIKFTANGNTLNIKVIFTENHNGKPKRTVQLILITFRNGRIKRVEVRDDG | -0.065
EHENVRLARSLIDALQQNNPQQAQENADKDVQYEVGEKRIHGREQYSDTMRKNKEQMEFRVHSVDMDEHNGRVTVNLTFIESTNGDPKQDRANLVIEFHNGRIQHVRMSKDG | -0.268
EHEQSKLMEHLLRIVETGDDDEFRKNADPNVKFVYGDKEYDGREEAAKALREIKTELRFQLNDVEIRVENGVIEINYDFTANHNGRPQRRTQRATAEYDNGKLKSWSVRDDG | -0.172
EKEAKTLAHHVMEALEKNDPDQMDEQLDENARVQVGDREVHGREEVNKQIKRLKKHAHFEIESVTLDVQGDKVDAQYTMRADVNGKPWRDHVTVEIHVRNGRIKELRFRMDPQRLRDFKK | 0.72
EKEDLQQIARDMAKAVVSGDKEQMRRLADENARAQIGDKTLHGREKLSELIKRIRDRVDHLRLVDVRQDGDQIQVYVDLVVNGRKRRFTIEAEAHNGHIHSVTFDPRAKEFLDS | 1.79
EKEEVKKAVEAFNENDEDELRDLVDENVKVVIGEKDYTGRETYWQFLRRMHEQIDHMHVKSVSVSNGVLRMDVEVVFNGRNVRFTIEVQAHDGQIKRVHYQARSEEQHKEFLKMLK | 1.58
EKEIVNNFKDWVRALTTGDEDRLRNYADPNAQFVVGEKRFHGMDDYVEDMRRRRTEIRVEIRVHHMNSTGEKIEIHAEQTHEHNGKPETHEFKMKAEVHNGRHKSVTQHDDG | 0.201
EKENVQSWLEAWNALRQGDEKRVEQLVDPNARMQVGDKKVEGMTRHVHKEVRKMKEIRVELDLKTVDTQGDHAVVKFRESRNHNGQPREQDVVVRMRAHNGRVQEVNVHEVS | 0.028
EKEQKERLEEAQHARESGDTERLKDLFDENVQVEVGDKRVNGMEKFVKDEVKKQRDLRISVTYTEMRNDPNHVDITVEVVEDKNGEPQRRVLEINIEYENGRARMMRVRRVQ | 1.1
EKEVMDTLVKIVNEGNFEDLAKMADKDVQVRIGNKNLHGKEQLQKFMERFTRQADHIRVHRYQFSNGRFQFDFVIVVNGKRFRVTMHVEVSNGRIKKLVINVTDEDAEKVLREAYG | 1.38
EKEVVELAERFIDALQTNNPDQAEENVDENVKFQYGDKSIKGRDTWNRELKKTLRDQRIQFRHVEIRSDGDKAHITAEFQVTHNGQPDKRRYKMTVEVRNGTIQRVTVQQHR | 0.17
EKHVMTRITQYERNVQNGDEDTLNEMVDKDAKINIGDKTWHGMHNAAKDWKRQKDEMRLDYRSIHVTVQGDTVRIDQVVAVERNGKPSHDRNVQIWHEDNGKVKQVEQHKRP | -0.216
EKSIVEFFKKWVTAQRDGDPRQHARYIDPNARLQVGDRVVNGREQAKDDQHKKRKEIKVDMRIKSISASNGTLEVNFREKVDVNGRPITREYRFRFEVRNGRITSLSNQVDKEEQKKLKK | 0.157
ENHVMNNAEKYLRLLEKGDEEELVKMADPNAKFRIGDKHVHGMESFADDLFRKQKEIRMEINIKHYEVQGDHVTIKAEQEKQHDGRPRRDTNKIIMQVHNGKIKQVTFTSDG | -0.222
EQDQIRRLKTFIKIIDHNNPSKVRELLDKDVHIDIGDKVIRGREEYADEIHKLQKEMRVKLQVDDIKDHGEHVHFTARWYARVNGRPRTNEIHVQARAHNGHVTSIKVHMDPRVLKEMRS | -0.027
EQELRKKATEMLKVVQEGDEDRLVEYADPNVRVQVGDKVLHGQEDLRKFVQRLTKESRIHLKHVDIEVHGNKIDITVEADVEHNGRPSTDTFSMRVEMENGRAKFIQVRTSK | 1.39

Sequence | protease stability score
EQEVVHLAHRFIEAVQHNSTEDANKNVDPNAKFRVGDHVVNGREEVNEKVRKDHEKIRLQIRSVTLEDQGDKVEIRMDVEFDVNGKPLHHNLKMTVEAHNGKIVQLDNQMDPTELKELKQ | -0.152
EQTFVHEFIKNVQRNNEHELKKLIDPNAKVVVGNKTFQGREQINSQLKRFKDQVDEFHVDTYHDKGDKAVIDYVRVVDGQRVHYRLIITAENGKVKSMELHVTDPEQQKTIERVLD | 1.33
ERDSLKHVAREMEKNNFDEMLHNADKDVEIHYGNRSVHGHKRAQSFWERLKSRVDHISFKSYSINNGRIVMSFKVVIDGQDIEVHISIEVENGTIKHVQFQATSEEIEKLLEKLMD | 1.36
ERELVSIAQDILHALEHGDPQQFRDLVDPNAKFKVGDHEWHGRESAANEYAKEQRKMNNKYDRVTWDNNGDHIRARFNWVNHSNGEPKRKQATQELVLHNGRLVSMKQDDTQ | -0.052
ERERNQKLAEIFAQAVETGDPEQAQKMAPPDVKAQVGDHQFRGREEIHKMIETIRRRADHARLKDMTVDGDKITIVVQFNVNGKEVNVVFHITVRNGVATEIELRSK | 1.26
EREVVQEAAKAINSNDFRRLSELMDKDVKMQYGDKTLSGREEVETLLKSLHEQIDTFTVDHYHVEGNKAEVDARFHFNGKRLRMHLYAVAHNGRIQEMKIQATTEHQQEELSRLWR | 0.613
ESELDKQAEQIVRVLRTGDPEKVADNAPEDAELIIGDKTYHGREQIRDWVHTVNKQMRIQWDEFDVKVKGDKAKVEADVVYDVNGTPVEDKIVLIFVIHNGRVHAVHFDFDPEVWRSMES | 0.569
ETEELHKMTELIDNMQRGNPQKFNEMVDPNAQFEVGDKTIRGREELSKELHRKRREMRRSLRSVKVRLSGNHFDIRVTFRETHNGQPDDRRQRIVIIVSNGRIKSVRVDEDG | 0
ETHVINRAIEAARHGDEDTLSKLADENAHVSVGDKEFHGREQVKNALKDWHDQVDTFEMKKVEVRGNKADVKIKVVVNGRDMTMRMEINAKGESIREINFSYRDERAKHHAQNAQG | 0.169
KEEDIVKVAKKLAKIVEEGNPDELKKLLSPDLEVKYGDKERHGADELVKVLKKLLRKGVRIQVKELQVEGNTATTVLEYQHGDKKHDVEIKAKLTGGRLKKLEVRFSPKAQEIVTQG | 2.02
KEEDVEKVAKRLITLVQEGNVDVMRKYLAPDVEVQYGDVEVKGPDQVVKHVRDLRRQGYRVQLKEVQVEGNTAETVLDYQAGDQKYTATVKAQVKGGVLKRATVKASPEMKKVVKAG | 1.38
KEETVETLWKQMVEAVQKNNEEQLKKLGKDDVKVEYGGKKYEGTEQMATQLKKFMDLGAKFELKRYKVEGNHVEADIQVHVGGKTVHVTVRVEYDGGKLKKVQVHVSEEAEEAYKKG | 1.24
KEETVKTLWERMVEAVQKGDKEKVKKLGKDNVNARYNGKEYQGREELAKMLDKFKRKGAEFELKQVHVEGNTVKAEIEVHAAGTTQHVEVEAKYDGGQVEEVVVKISEEVQEMYKKG | 0.551
NEEQAKRLAEKWIRAVENGNVDELRKLGKPDMEVVAVNEKAKGVDTVHKYMKKFTDRGVELKVDRAKNTGGRVRYTVRARYGGQELTAEVVIDIKDGKVDKVEFRVDERQAQYVLRG | 0.812
NEEQLERVVKKWMEAVENADSKKVKELLKPDAEVQFGNRTVKGVDELVKYVKKFMDMGVELEVKEHKVEGGRARYQVVATYGGQTVTAQLTIQAKNGKIEKIEFRDNEEVQTLEKQG | 0.988
REEDVEKVIRTLLQAVHEGNPDKIRKYLKPDVEVQYADQKFKGPDEIMKLMRRMVRKGYRVQIKEQHVEGDTATTRADYQMGDKQVTVEVTAEAENGKLKHAEIKMSPQFEEIVKKG | 1.49
SEEELRKVVEKLLTYVIEGNPDDVKKYISPNVQVRYFDKTVQGRDEVMKFLRRAKKHGYRLQAKHVQLEGDRATTELDYQAGDQEATVRVEATVNGGRLEKLEVRDSPKVKKVLKDG | 1.56
SEEQVEKLVKVMFRAVQNGNKDEVKKYGKSSGQFVFGSDRVEGVDQYVKKLKEVHDRGVQFEFKKFQVKDDTVTMETEVHYGNKTFRVTAQAKYDGGTLDRARVEISEEAKEAYKQG | 0.368
SEERAKKVAKKLMEAFVKGNKDDAKDALQEDVQLHIAGTTYHGPKAVEKLIEFWQRVGVEVKVQEVRVKGNHVEIQTQVHLGDNTTTVRYKIQVEGDKVKKLQLNFSEEVFKQAKDG | 1.76
TEEDVLKVLETLMKAFFDGNPKEVKEMGKEDVKFQVGDQEVRGVDQMTKRVKEYRDQGIEFHLKRYKVEGDQVTAEAEVVMGDKKARVTAHYKADDGRVDETRVEMSDEAKKLFKHG | 0.432
